From patent publication US20030166850A1 (Pfizer, published 2003) come the findings set out here.

For test [1], the target named is T1, proline rich domain of RGS9-2, amino acids 460-672 of human RGS9 (bait, plasmid pAS1-RGS9CT) (human, UniProt O75916 463-674).
T1 sequence: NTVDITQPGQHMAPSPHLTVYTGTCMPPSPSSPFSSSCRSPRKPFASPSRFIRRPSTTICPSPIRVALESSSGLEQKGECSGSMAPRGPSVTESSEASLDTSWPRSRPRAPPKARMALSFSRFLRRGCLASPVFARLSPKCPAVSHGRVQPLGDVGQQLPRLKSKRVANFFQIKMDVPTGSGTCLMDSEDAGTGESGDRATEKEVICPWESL
The test can be described thus: yeast two-hybrid screen of a human fetal brain library. From the text:
(§1) To identify interactors of the proline rich domain of RGS9, amino acids 460-672 of human RGS9 (FIG. 1A), was used as “bait” to screen a pretransformed human fetal brain library (Clontech). The RGS9-2 cDNA used was cloned by PCR from a human brain cDNA library using the primers 5′ primer: […], 3′ primer: […]. The DNA encoding amino acids 460-672 of RGS9-2, was amplified by PCR using the primer sequences 5′ […] and 3′ […] and ligated into the NdeI and BamH 1 sites of pAS1 (Clontech). The pAS1-RGS9CT plasmid was used to transform the yeast strain PJ69-2A (Clontech) using lithium acetate. The library was screened using a yeast mating protocol by incubating the library (MATα) with the bait strain ([…]) overnight at 30° C. according to the manufacturer's protocols. The mating mixture was plated on SD/-His/-Leu/-Trp and incubated at 30° C. until colonies appeared. Colonies were picked and miniprep DNA prepared. The insert in the library plasmid was amplified using the LD-Insert Screening amplimer set of primers (Clontech) and the amplicon sequenced on an ABI 3700 capillary sequencer. The sequences obtained were used as queries against the GENBANK database using BLAST. The 6 most common hits were selected for further study and were replated on SD/-His/-Leu/-Trp containing 0-40 mM […]. […]

In test [2] the target is T1, proline rich domain of RGS9-2, amino …. Briefly: yeast two-hybrid assay.
Excerpt: as §1

B1: evectin clone discovered in the yeast two-hybrid screen (amino acids 101-190) (other)
chain: KTALLEANSTPVRVYSPYQDYYEVVPPNAHEATYVRSYYGPPYAGPGVTHVIVREDPCYSAGAPLAMGMLAGAATGAALGSLMWSPCWF
notes: Prey clone from the pretransformed human fetal brain library (Clontech); also called latter half of the evectin protein
Take B1: the binding result in test [1] is recorded as “binds”.

B2: EVT ΔC54 (C terminal deletion mutant of evectin) (other)
chain: MALVRGGWLWRQSSILRRWKRNWFALWLDGTLGYYHDETAQDEEDRVLIHFNVRDIKIGPECHDVQPPEGRSRDGLLTVNLREGGRLHLCAETKDDALAWKTALLEANSTPVRVYSPYQDYYEVVPPNAHEATYVR
B2: in test [2], the binding result was “binds”.
